These are literature values, as cited in article PMC7490560.

For the data set, the target named is KEAP1 (Homo sapiens) (UniProt Q14145).

Several values for one entry are separate records, joined by “and”; a condition that tells them apart may be missing. Equal entries are not always repeated.

Sequence of KEAP1 (Homo sapiens) (Q14145 whole entry): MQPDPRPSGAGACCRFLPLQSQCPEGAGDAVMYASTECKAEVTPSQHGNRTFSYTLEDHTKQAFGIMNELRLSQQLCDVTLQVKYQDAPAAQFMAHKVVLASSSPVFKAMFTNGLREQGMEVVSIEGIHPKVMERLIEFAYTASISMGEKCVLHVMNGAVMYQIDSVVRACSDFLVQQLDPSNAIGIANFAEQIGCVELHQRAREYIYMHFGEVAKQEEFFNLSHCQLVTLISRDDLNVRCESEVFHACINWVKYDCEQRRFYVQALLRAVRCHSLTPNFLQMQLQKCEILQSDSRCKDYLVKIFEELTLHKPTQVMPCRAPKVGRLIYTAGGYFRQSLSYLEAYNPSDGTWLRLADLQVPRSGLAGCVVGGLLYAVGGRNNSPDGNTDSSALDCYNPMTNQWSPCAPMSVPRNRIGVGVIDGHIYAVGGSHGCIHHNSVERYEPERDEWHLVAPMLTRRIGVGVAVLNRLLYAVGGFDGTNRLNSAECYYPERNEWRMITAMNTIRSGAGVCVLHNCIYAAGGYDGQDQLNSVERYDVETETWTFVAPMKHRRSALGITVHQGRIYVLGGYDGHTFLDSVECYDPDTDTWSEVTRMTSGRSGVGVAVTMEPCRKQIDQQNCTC
Sequence of NRF2 (Q16236 whole entry): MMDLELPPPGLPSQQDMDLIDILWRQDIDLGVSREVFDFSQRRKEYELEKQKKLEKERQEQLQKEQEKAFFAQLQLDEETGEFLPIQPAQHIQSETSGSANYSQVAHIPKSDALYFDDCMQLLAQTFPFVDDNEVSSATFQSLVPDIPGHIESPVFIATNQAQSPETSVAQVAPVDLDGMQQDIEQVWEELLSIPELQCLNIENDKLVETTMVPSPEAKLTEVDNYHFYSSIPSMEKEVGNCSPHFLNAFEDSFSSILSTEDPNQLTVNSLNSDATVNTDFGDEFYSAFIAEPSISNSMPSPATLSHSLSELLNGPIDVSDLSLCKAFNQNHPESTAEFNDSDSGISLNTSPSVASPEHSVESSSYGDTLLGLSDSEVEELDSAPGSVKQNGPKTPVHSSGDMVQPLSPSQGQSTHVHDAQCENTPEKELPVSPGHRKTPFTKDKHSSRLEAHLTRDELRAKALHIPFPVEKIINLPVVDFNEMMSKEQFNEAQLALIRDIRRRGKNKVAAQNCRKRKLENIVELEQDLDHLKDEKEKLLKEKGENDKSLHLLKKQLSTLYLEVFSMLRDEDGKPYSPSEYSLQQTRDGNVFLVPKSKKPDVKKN

For the substance NRF2 (from UniProt Q16236), the dissociation constant Kd is 580 nM and 167 nM.

What is called Kd is a measure of binding affinity in units of concentration.
